Data from US20260258115A1.

B1: ADI-41190 (antibody, V domains shown)
VH: QVQLVQSGAEVKKPGASVKVSCKAFGYTFRSYDMQWVRQAPGQRLEWMGWINAVNGDTKYSQKFQGRVTITRDTSATTVYMELSSLRSEDTAVYYCARWGRFWNSRSLDYYAMDVWGQGTTVTVSS
VL: DIVMTQSPGTLSLSPGERATLSCRASQSISSSYLVWYQHKPGQAPRLLIYGASTRATDIPDRFSGSGSGTDFTLTISRLEPEDFAVYYCQQYGSSPLTFGQGTRLEIK
B2: ADI-41189 (antibody, V domains shown)
VH: QVQLVESGGGLVKPGGSLRLSCAASGFTFSSYSMNWVRQAPGKGLEWVSSMSSSSGYIDYADSVKGRFTISRDNAKNSLYLQMNSLRVEDTAVYYCARRNAVVVPSLMVVADYYYGMDVWGQGTTVTVSS
VL: QSVLTQPPSVSGAPGQRVTISCTGSSSNIGAGYDVHWYQQLPGTAPKLLIYGNSNRPSGVPDRFSGSKSGTSASLAITGLQAEDEADYYCQSYDTSLSGPGYVFGTGTKLTVL
B3: ADI-41182 (antibody, V domains shown)
VH: QVQLVQSGAEVKKPGESLKISCQGSGYSFTSYWIGWVRQMPGKDLEWMGIIYPSDSDTRYSPSFQGQVTISVDKSINTAYLQWTSLKASDTAMYYCARCDGAVYWYFDLWGRGTLVTVSS
VL: EIVLTQSPATLSVSPGERVTLSCRASRSVSSHLAWYQQKPGQAPRLLMYGASTRATGIPARFSGSGSGTEFTLTISSLQSEDFGVYYCQQYNNWPPALTFGGGTKLEIK
B4: ADI-41185 (antibody, V domains shown)
VH: QVQLQQWGAGLLKPSETLSLTCAVYGGSFSSYYYSWIRQPPGKGLEWIGEINQSGSTNYNPSLKSRVTISVDTSKNEFSLKLSSVTAADTAVYYCARIVREFNTRWYDYYYMDVWGKGTTVTVSS
VL: DIRVTQSPATLSLSPGERATLSCRTSQSISSSYLAWYQQKFGQAPRLLIYGASSRATGIPDRFSGSGSGTDFTLTISRLEPEDFAVYYCQQYGISPPMYTFGQGTKVEIK
B5: ADI-41186 (antibody, V domains shown)
VH: EVQLLESGAEVKKPGESLKISCKGSGYSFSSYWIAWVRQMPGKGLEWMGIIYPSDSDTKYSPSFQGQVTISADKSISTAYLQWSSLKASDTAMYYCARQAGIQRPLDYWGQGTLVTVSS
VL: EIVMTQSPATLSVSPGERATLSCRASQSVRSNLAWYQQKPGQAPRLLIYDASTRATGISARFSGSGSGTEFTLTISSLQSEDFAVYYCQQFHNWPPYTFGQGTKVEIK
B6: ADI-41184 (antibody, V domains shown)
VH: EVQLLETGGGLVQPGGSLRLSCAASGFTFSSYDMNWVRQAPGKGLEWVSTISGSGGPTYYAGSVKGRFTISRDNSKNTLYLQMNSLRADDTAVYYCAKAQLYDTSGYYLYYFDYWGQGTLVTVSS
VL: DIRMTQSPSSLSASVGDRVTITCRASQRITSYLNWYQQKPGKAPKLLIYAASSLQSGVPSRFSGSGSGTDFTLTISSLQPEDFATYFCQQSYSTSFTFGPGTKVDIK
B7: ADI-41183 (antibody, V domains shown)
VH: QVQLQESGAGLVKPSETLSLTCGVYGESFSGHSWSWIRQPPGRGLEWIGEINQSGTTKYNPSLRSRVTISVDRSKNEFSLKVSSVTAADTAVYFCARYFRSFYTIGPDYYYMDVWGKGTTVTVSS
VL: EIVLTQSPSSLSASVGDRVTITCRASQNINNYLNWYQQKPGKAPRLLIYAASSLQSGVPSRFTGSGSGTDFTLTIRSLQSEDFATYYCQHSYSSSLLTFGGGTKVDIK

Biological target: RSV postfusion F (postF), F deltaFP (Respiratory Syncytial Virus)
Experiment: BLI, IgG on anti-human IgG sensor, 100 nM antigen

Binder | Kd
B1 | 0.971 nM
B2 | 0.608 nM
B3 | 0.462 nM
B4 | 0.809 nM
B5 | 0.703 nM
B6 | 0.532 nM
B7 | 1 nM

Biological target: RSV prefusion F (preF), DS-Cav1 (Respiratory Syncytial Virus)
Experiment: BLI, IgG on anti-human IgG sensor, 100 nM antigen

Binder | Kd
B1 | 2.29 nM
B2 | 2.86 nM
B3 | 2.55 nM
B4 | 3.23 nM
B5 | 3.01 nM
B6 | 2.85 nM
B7 | 4.08 nM

Biological target: Respiratory Syncytial Virus fusion glycoprotein (RSV F) on RSV-A2 virus (Respiratory Syncytial Virus subtype A (RSV-A2))
Experiment: cell-based or functional assay

Binder | Neutralization IC50 (RSV subtype A)
B1 | > 25 µg/mL
B2 | > 25 µg/mL
B3 | > 25 µg/mL
B4 | > 25 µg/mL
B5 | > 25 µg/mL
B6 | > 25 µg/mL
B7 | > 25 µg/mL
